Some results are limits rather than exact numbers.

From patent CN111574631A come the findings set out here.

Test [1] concerns the target 硫氧还蛋白(Thioredoxin，Trx). The experiment in a line: indirect ELISA, Trx coated at 1 ug/ml, antibody 15.63 ng/ml, goat anti-mouse IgG-HRP, OD450 (ref 630). A general note: In an ELISA, binding on a coated surface is turned into a signal by an enzyme label.
For test [2], the target named is 硫氧还蛋白(Thioredoxin，Trx). Briefly: indirect ELISA, Trx coated at 1 ug/ml, antibody 0 ng/ml (blank well), goat anti-mouse IgG-HRP, OD450 (ref 630).
Test [3] has as its target 硫氧还蛋白(Thioredoxin，Trx). The experiment in a line: indirect ELISA, Trx coated at 3 ug/ml, supernatant of transiently transfected CHO cells diluted 1000-fold, goat anti-mouse-HRP, OD450 (ref 630).
For test [4], the target named is 硫氧还蛋白(Thioredoxin，Trx). The experiment in a line: indirect ELISA, Trx coated at 1 ug/ml, antibody 125 ng/ml, goat anti-mouse IgG-HRP, OD450 (ref 630).
Test [5] has as its target 硫氧还蛋白(Thioredoxin，Trx). Briefly: indirect ELISA, Trx coated at 1 ug/ml, antibody 1000 ng/ml, goat anti-mouse IgG-HRP, OD450 (ref 630).
In test [6] the target is 硫氧还蛋白(Thioredoxin，Trx). Briefly: indirect ELISA, Trx coated at 1 ug/ml, antibody 1.95 ng/ml, goat anti-mouse IgG-HRP, OD450 (ref 630).

Chain of 硫氧还蛋白(Thioredoxin，Trx) (P0AA25 2-109): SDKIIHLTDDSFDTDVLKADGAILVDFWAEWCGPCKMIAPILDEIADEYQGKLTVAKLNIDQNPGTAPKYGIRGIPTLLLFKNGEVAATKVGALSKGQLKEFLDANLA

B1: 实施例4的硫氧还蛋白的单克隆抗体(WT) (antibody, mouse IgG1, kappa, V domains shown)
VH: EVQLQQSGPMLVKPGASVTISCKASGFTITDYNLHWVRQSHGKSLEWIGYITSYNGGTGYNQKFKTKATLTVDKSSTTAYMELRSLTSDDSALYYCARNFRNYFEHWGQGTTLTVSS
VL: DIQMTQPTSSLSASLGDRVTISCRASQDLYNSINWYQQKPDGTVKLLIYYTSRIHSGVPSRFSGSGSGTDYSLTISNLEQEDIATYFCQQGNSIPRTFGGGTKLEIKR
Turning to B1, the OD with 硫氧还蛋白(Thioredoxin，Trx) [1] is 1.62 OD; with 硫氧还蛋白(Thioredoxin，Trx) [2], 0.057 OD; with 硫氧还蛋白(Thioredoxin，Trx) [3] it was greater than 1 OD; in the test with 硫氧还蛋白(Thioredoxin，Trx) [4], 2.14 OD; with 硫氧还蛋白(Thioredoxin，Trx) [5], 2.31 OD; in the test with 硫氧还蛋白(Thioredoxin，Trx) [6], 0.488 OD.
